Assay results from the Human Domainome abundance scans (Beltran et al. 2025).
± gives the uncertainty stated by the source.

B1: Max-interacting protein 1, residues 70 to 120; numbered along this chain, P50539 (parent)
chain: STHNELEKNRRAHLRLCLERLKVLIPLGPDCTRHTTLGLLNKAKAHIKKLE

Variants of: B1
Assay: abundance fitness (aPCA) (normalised: wild type 0, dead -1); higher = more abundant; growth selection in yeast, the domain comes from the species named
Settings: Homo sapiens

Row | Variant | abundance fitness
1 | STHNELEKNRRAHLRLCLERLKVLIFLGPDCTRHTTLGLLNKAKAHIKKLE [P26F] | -0.557 ± 0.2
2 | STHNELEKNRRAHLRLCLARLKVLIPLGPDCTRHTTLGLLNKAKAHIKKLE [E19A] | -0.23 ± 0.088
3 | STHNELEKNRRAHLRLCLERLKVLIPLGPDCCRHTTLGLLNKAKAHIKKLE [T32C] | 0.268 ± 0.12
4 | STHNELEKNRRAHLRLCLERLKVLIPLGPDCMRHTTLGLLNKAKAHIKKLE [T32M] | 0.546 ± 0.12
5 | STENELEKNRRAHLRLCLERLKVLIPLGPDCTRHTTLGLLNKAKAHIKKLE [H3E] | -0.047 ± 0.11
6 | STDNELEKNRRAHLRLCLERLKVLIPLGPDCTRHTTLGLLNKAKAHIKKLE [H3D] | 0.023 ± 0.15
7 | STANELEKNRRAHLRLCLERLKVLIPLGPDCTRHTTLGLLNKAKAHIKKLE [H3A] | -0.099 ± 0.1
8 | STHNELEKNRRAHLRLCLERLKVLIPLGPDCTRHTTVGLLNKAKAHIKKLE [L37V] | -0.023 ± 0.089
9 | STHNELEKNRRAHLRLCLERLKVLIPLGPDCTRHTTYGLLNKAKAHIKKLE [L37Y] | -0.172 ± 0.13
10 | STHNELEKNRRAHLRLCLERLKVLIPLGPDCTRHTTCGLLNKAKAHIKKLE [L37C] | -0.244 ± 0.19
11 | STHNELEKNRRAHLRLCLERLKVLIPLGPDCTRHTTPGLLNKAKAHIKKLE [L37P] | -0.624 ± 0.15
12 | STHNELEKNRRAHLRLCLERLKVLIPLGPDCTRHTTLGHLNKAKAHIKKLE [L39H] | -1.15 ± 0.36
13 | STHNELEKNRRAHLRLCLERLKVLIPLGPDCTRHTTLGCLNKAKAHIKKLE [L39C] | -0.588 ± 0.13
14 | STHNELEKNRRAHLRLCLERLKVLIPLGPDCTRHTTLGLLNKAKAHPKKLE [I47P] | -1.06 ± 0.17
15 | STHNELEKNRRAHLRLCLERLKVLIPLGPDCTRHTTLGLLNKAKAHSKKLE [I47S] | -0.653 ± 0.093
16 | STHNELEKNRRAHLRLCLERLKVLIPLGQDCTRHTTLGLLNKAKAHIKKLE [P29Q] | 0.028 ± 0.13
17 | STHNELEKNRRAHLRLCLERLKVLIPLGLDCTRHTTLGLLNKAKAHIKKLE [P29L] | 0.533 ± 0.085
18 | STHNELEKNRRAHLRLCLERLKVLIPLGRDCTRHTTLGLLNKAKAHIKKLE [P29R] | 0.216 ± 0.085
19 | STHNELEKNRRAHLRLCLERLKVLIPLGCDCTRHTTLGLLNKAKAHIKKLE [P29C] | 0.181 ± 0.12
20 | STHNELEKNRRAHLRLCLERLKVLIPLGYDCTRHTTLGLLNKAKAHIKKLE [P29Y] | 0.256 ± 0.14
21 | STHNELEKNRRAHLRLCLERLKVLIPLGSDCTRHTTLGLLNKAKAHIKKLE [P29S] | 0.359 ± 0.092
22 | STHNELEKNRRAHLRLCLERLKVLIPLGPRCTRHTTLGLLNKAKAHIKKLE [D30R] | 0.178 ± 0.079
23 | STHNELEKNRRAHLRLCLERLKVLIPLGPSCTRHTTLGLLNKAKAHIKKLE [D30S] | 0.279 ± 0.07
24 | STHNELEKNRRAHLRLCLERLKVLIPLGPYCTRHTTLGLLNKAKAHIKKLE [D30Y] | -0.007 ± 0.077
25 | STHNELEKNRRAHLRLCLERLKVLIPLGPHCTRHTTLGLLNKAKAHIKKLE [D30H] | 0.031 ± 0.078
26 | STHNELEKNRRAHLRLCLERLKVTIPLGPDCTRHTTLGLLNKAKAHIKKLE [L24T] | -0.455 ± 0.13

Row | Variant | abundance fitness
27 | STHNELEKNRRAHLTLCLERLKVLIPLGPDCTRHTTLGLLNKAKAHIKKLE [R15T] | -0.407 ± 0.13
28 | STHNELEKNRRAHLWLCLERLKVLIPLGPDCTRHTTLGLLNKAKAHIKKLE [R15W] | -0.27 ± 0.13
29 | STHNELEKNRRAHLPLCLERLKVLIPLGPDCTRHTTLGLLNKAKAHIKKLE [R15P] | -0.21 ± 0.13
30 | STHNELEKNRRAHLRLCLERLKVLIPLGPDCTKHTTLGLLNKAKAHIKKLE [R33K] | -0.117 ± 0.13
31 | STHNELEKNRRAHLRLCLERLKVLIPLGPDCTWHTTLGLLNKAKAHIKKLE [R33W] | -0.075 ± 0.1
32 | STHNELEKNRRAHLRLCLERLKVLIPLGPDCTDHTTLGLLNKAKAHIKKLE [R33D] | -0.644 ± 0.14
33 | STHNELEKNRKAHLRLCLERLKVLIPLGPDCTRHTTLGLLNKAKAHIKKLE [R11K] | 0.223 ± 0.11
34 | STHNELEKNRLAHLRLCLERLKVLIPLGPDCTRHTTLGLLNKAKAHIKKLE [R11L] | -0.062 ± 0.085
35 | STHNELEKNRRAHLRLCLERLKVLIPLGPDCTRHTTLGLLAKAKAHIKKLE [N41A] | -0.218 ± 0.2
36 | STHNELEKNRRAHLRLCLERLKVLIPLGPDCTRHTTLGLLCKAKAHIKKLE [N41C] | -0.237 ± 0.17
37 | STHNELEKNRRAHLRLCLERLKVLIPLGPDCTRHTTLGLLNKHKAHIKKLE [A43H] | -0.828 ± 0.17
38 | STHNELEKNRRAHLRLCLERLKVLIPLGPDCTRHTTLGLLNKFKAHIKKLE [A43F] | -0.182 ± 0.12
39 | STHNELEKNRRAHLRLCLEGLKVLIPLGPDCTRHTTLGLLNKAKAHIKKLE [R20G] | -0.817 ± 0.1
40 | STHNELEKNRRAHLRLCLEFLKVLIPLGPDCTRHTTLGLLNKAKAHIKKLE [R20F] | -0.971 ± 0.18
41 | STHNELEKNRRAHLRLCLEQLKVLIPLGPDCTRHTTLGLLNKAKAHIKKLE [R20Q] | -0.405 ± 0.18
42 | STHNELEKNRRAHGRLCLERLKVLIPLGPDCTRHTTLGLLNKAKAHIKKLE [L14G] | -0.265 ± 0.083
43 | STHNELEKNRRAHMRLCLERLKVLIPLGPDCTRHTTLGLLNKAKAHIKKLE [L14M] | -0.208 ± 0.11
44 | STHNELEKNRRAHLRLCLERLKVLIPLGPDPTRHTTLGLLNKAKAHIKKLE [C31P] | 0.053 ± 0.13
45 | STHNELEKNRRAHLRLCLERLKVLIPLGPDFTRHTTLGLLNKAKAHIKKLE [C31F] | 0.007 ± 0.13
46 | STHNELEKNFRAHLRLCLERLKVLIPLGPDCTRHTTLGLLNKAKAHIKKLE [R10F] | -0.164 ± 0.13
47 | STHNELEQNRRAHLRLCLERLKVLIPLGPDCTRHTTLGLLNKAKAHIKKLE [K8Q] | -0.492 ± 0.22
48 | STHNELEKNRRAHLRLCCERLKVLIPLGPDCTRHTTLGLLNKAKAHIKKLE [L18C] | -0.61 ± 0.13
49 | STHNELEKNRRAHLRLCYERLKVLIPLGPDCTRHTTLGLLNKAKAHIKKLE [L18Y] | -0.305 ± 0.16
50 | STHNELEKNRRAHLRLCTERLKVLIPLGPDCTRHTTLGLLNKAKAHIKKLE [L18T] | -0.824 ± 0.14
51 | STHNELEKNRRAHLRLCIERLKVLIPLGPDCTRHTTLGLLNKAKAHIKKLE [L18I] | -0.295 ± 0.21
